Assay results: patent publication US20120122239A1

What was measured:
[1] = target: human pro B-type natriuretic peptide (HyTest, Turku, Finland; Catalog No. 8PRO8) (human); assay: sandwich CMIA, capture 15F11, analyte 86.6 pM
[2] = target: glycosylated human proBNP (HyTest, Turku, Finland; Catalog No. 8GOB2) (human); assay: sandwich CMIA, capture 15F11, analyte 86.6 pM
[3] = target: human NT-pro B-type natriuretic peptide (HyTest, Turku, Finland; Catalog No. 8NT1) (human); assay: sandwich CMIA, capture 15F11, analyte 86.6 pM
human NT-pro B-type natriuretic peptide (HyTest, Turku, Finland; Catalog No. 8NT1) (human), sequence (chain, as listed by the source): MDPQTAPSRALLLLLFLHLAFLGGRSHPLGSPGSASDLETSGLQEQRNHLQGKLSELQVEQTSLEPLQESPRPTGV

[4] = target: human pro B-type natriuretic peptide (HyTest, Turku, Finland; Catalog No. 8PRO8) (human); assay: sandwich CMIA, capture 15F11, analyte 288.7 pM
[5] = target: glycosylated human proBNP (HyTest, Turku, Finland; Catalog No. 8GOB2) (human); assay: sandwich CMIA, capture 15F11, analyte 288.7 pM
[6] = target: human NT-pro B-type natriuretic peptide (HyTest, Turku, Finland; Catalog No. 8NT1) (human); assay: sandwich CMIA, capture 15F11, analyte 288.7 pM
[7] = target: human pro B-type natriuretic peptide (HyTest, Turku, Finland; Catalog No. 8PRO8) (human); assay: sandwich CMIA, capture 15F11, analyte 0.0 pM (blank)
[8] = target: glycosylated human proBNP (HyTest, Turku, Finland; Catalog No. 8GOB2) (human); assay: as above
[9] = target: human NT-pro B-type natriuretic peptide (HyTest, Turku, Finland; Catalog No. 8NT1) (human); assay: as above
[10] = target: human pro B-type natriuretic peptide (HyTest, Turku, Finland; Catalog No. 8PRO8) (human); assay: sandwich CMIA, capture 15F11, 288.7 pM, against human NT-proBNP
[11] = target: glycosylated human proBNP (HyTest, Turku, Finland; Catalog No. 8GOB2) (human); assay: as above
[12] = target: human pro B-type natriuretic peptide (HyTest, Turku, Finland; Catalog No. 8PRO8) (human); assay: sandwich CMIA, capture 15C4, analyte 577.4 pM
[13] = target: glycosylated human proBNP (HyTest, Turku, Finland; Catalog No. 8GOB2) (human); assay: sandwich CMIA, capture 15C4, analyte 577.4 pM
[14] = target: human NT-pro B-type natriuretic peptide (HyTest, Turku, Finland; Catalog No. 8NT1) (human); assay: sandwich CMIA, capture 15C4, analyte 577.4 pM
[15] = target: human pro B-type natriuretic peptide (HyTest, Turku, Finland; Catalog No. 8PRO8) (human); assay: sandwich CMIA, capture 15C4, analyte 288.7 pM
[16] = target: glycosylated human proBNP (HyTest, Turku, Finland; Catalog No. 8GOB2) (human); assay: sandwich CMIA, capture 15C4, analyte 288.7 pM
[17] = target: human NT-pro B-type natriuretic peptide (HyTest, Turku, Finland; Catalog No. 8NT1) (human); assay: sandwich CMIA, capture 15C4, analyte 288.7 pM
[18] = target: human pro B-type natriuretic peptide (HyTest, Turku, Finland; Catalog No. 8PRO8) (human); assay: sandwich CMIA, capture 15C4, analyte 43.3 pM
[19] = target: glycosylated human proBNP (HyTest, Turku, Finland; Catalog No. 8GOB2) (human); assay: sandwich CMIA, capture 15C4, analyte 43.3 pM
[20] = target: human NT-pro B-type natriuretic peptide (HyTest, Turku, Finland; Catalog No. 8NT1) (human); assay: sandwich CMIA, capture 15C4, analyte 43.3 pM
[21] = target: human pro B-type natriuretic peptide (HyTest, Turku, Finland; Catalog No. 8PRO8) (human); assay: sandwich CMIA, capture 15F11, 43.3 pM, against human NT-proBNP
[22] = target: glycosylated human proBNP (HyTest, Turku, Finland; Catalog No. 8GOB2) (human); assay: as above
[23] = target: human pro B-type natriuretic peptide (HyTest, Turku, Finland; Catalog No. 8PRO8) (human); assay: sandwich CMIA, capture 15F11, 577.4 pM, against human NT-proBNP
[24] = target: glycosylated human proBNP (HyTest, Turku, Finland; Catalog No. 8GOB2) (human); assay: as above
[25] = target: human pro B-type natriuretic peptide (HyTest, Turku, Finland; Catalog No. 8PRO8) (human); assay: sandwich CMIA, capture 15F11, against human NT-proBNP
[26] = target: human pro B-type natriuretic peptide (HyTest, Turku, Finland; Catalog No. 8PRO8) (human); assay: sandwich CMIA, capture 15F11, 86.6 pM, against human NT-proBNP
[27] = target: glycosylated human proBNP (HyTest, Turku, Finland; Catalog No. 8GOB2) (human); assay: as above
[28] = target: human pro B-type natriuretic peptide (HyTest, Turku, Finland; Catalog No. 8PRO8) (human); assay: sandwich CMIA, capture 15C4, analyte 86.6 pM
[29] = target: glycosylated human proBNP (HyTest, Turku, Finland; Catalog No. 8GOB2) (human); assay: sandwich CMIA, capture 15C4, analyte 86.6 pM
[30] = target: human NT-pro B-type natriuretic peptide (HyTest, Turku, Finland; Catalog No. 8NT1) (human); assay: sandwich CMIA, capture 15C4, analyte 86.6 pM
[31] = target: human pro B-type natriuretic peptide (HyTest, Turku, Finland; Catalog No. 8PRO8) (human); assay: sandwich CMIA, capture 15F11, analyte 577.4 pM
[32] = target: glycosylated human proBNP (HyTest, Turku, Finland; Catalog No. 8GOB2) (human); assay: sandwich CMIA, capture 15F11, analyte 577.4 pM
[33] = target: human NT-pro B-type natriuretic peptide (HyTest, Turku, Finland; Catalog No. 8NT1) (human); assay: sandwich CMIA, capture 15F11, analyte 577.4 pM
[34] = target: human pro B-type natriuretic peptide (HyTest, Turku, Finland; Catalog No. 8PRO8) (human); assay: sandwich CMIA, capture 15F11, analyte 43.3 pM
[35] = target: glycosylated human proBNP (HyTest, Turku, Finland; Catalog No. 8GOB2) (human); assay: sandwich CMIA, capture 15F11, analyte 43.3 pM
[36] = target: human NT-pro B-type natriuretic peptide (HyTest, Turku, Finland; Catalog No. 8NT1) (human); assay: sandwich CMIA, capture 15F11, analyte 43.3 pM
[37] = target: human pro B-type natriuretic peptide (HyTest, Turku, Finland; Catalog No. 8PRO8) (human); assay: sandwich CMIA, capture 15C4, analyte 0.0 pM (blank)
[38] = target: glycosylated human proBNP (HyTest, Turku, Finland; Catalog No. 8GOB2) (human); assay: as above
[39] = target: human NT-pro B-type natriuretic peptide (HyTest, Turku, Finland; Catalog No. 8NT1) (human); assay: as above

human pro B-type natriuretic peptide (HyTest, Turku, Finland; Catalog No. 8PRO8) (human), sequence (chain, as listed by the source): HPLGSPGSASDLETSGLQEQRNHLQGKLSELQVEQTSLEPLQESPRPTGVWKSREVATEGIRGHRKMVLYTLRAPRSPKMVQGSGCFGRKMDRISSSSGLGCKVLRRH

Analyte rlus [1] [rlus]	Analyte rlus [2] [rlus]	Analyte rlus [3] [rlus]	Analyte rlus [4] [rlus]	Analyte rlus [5] [rlus]	Analyte rlus [6] [rlus]	Analyte rlus [7] [rlus]	Analyte rlus [8] [rlus]	Analyte rlus [9] [rlus]	Analyte rlus [12] [rlus]	Analyte rlus [13] [rlus]	Analyte rlus [14] [rlus]	Analyte rlus [15] [rlus]	Analyte rlus [16] [rlus]	Analyte rlus [17] [rlus]	Analyte rlus [18] [rlus]	Analyte rlus [19] [rlus]	Analyte rlus [20] [rlus]	Analyte rlus [28] [rlus]	Analyte rlus [29] [rlus]	Substance	other results
1540	2010	57200	2190	1580	312000	1340	1340	1340	1960	1790	2080	1880	1860	2060	2180	1800	1980	1820	1880	anti-human NT proBNP/anti-human proBNP monoclonal antibody 15C4 (HyTest, Turku, Finland)	% Cross-reactivity [10]: 0.3%; % Cross-reactivity [11]: 0.1%; % Cross-reactivity [21]: 0.7%; % Cross-reactivity [22]: -0.4%; % Cross-reactivity [23]: 0.3%; % Cross-reactivity [24]: 0%; % Cross-reactivity [25]: < 1%; % Cross-reactivity [26]: 0.4%; % Cross-reactivity [27]: 1.2%; Analyte rlus [30]: 2000 rlus; Analyte rlus [31]: 3360 rlus; Analyte rlus [32]: 1450 rlus; Analyte rlus [33]: 662000 rlus; Analyte rlus [34]: 1490 rlus; Analyte rlus [35]: 1260 rlus; Analyte rlus [36]: 21200 rlus; Analyte rlus [37]: 1940 rlus; Analyte rlus [38]: 1940 rlus; Analyte rlus [39]: 1940 rlus
963	886	929	949	925	977	912	912	912	917	859	1370	945	930	1140	851	1010	883	1040	835	anti-human NT proBNP/anti-human proBNP monoclonal antibody 15F11 (HyTest, Turku, Finland)	Analyte rlus [30]: 998 rlus; Analyte rlus [31]: 897 rlus; Analyte rlus [32]: 953 rlus; Analyte rlus [33]: 1010 rlus; Analyte rlus [34]: 857 rlus; Analyte rlus [35]: 899 rlus; Analyte rlus [36]: 904 rlus; Analyte rlus [37]: 847 rlus; Analyte rlus [38]: 847 rlus; Analyte rlus [39]: 847 rlus
938	918	20800	1090	906	124000	886	886	886	735	770	850	834	725	814	718	781	786	747	751	anti-human NT-proBNP/anti-human proBNP labeled monoclonal antibody 24E11 (HyTest, Turku, Finland)	% Cross-reactivity [10]: 0.2%; % Cross-reactivity [11]: 0%; % Cross-reactivity [21]: 0.3%; % Cross-reactivity [22]: -0.4%; % Cross-reactivity [23]: 0.1%; % Cross-reactivity [24]: 0%; % Cross-reactivity [25]: < 1%; % Cross-reactivity [26]: 0.3%; % Cross-reactivity [27]: 0.2%; Analyte rlus [30]: 699 rlus; Analyte rlus [31]: 1240 rlus; Analyte rlus [32]: 892 rlus; Analyte rlus [33]: 357000 rlus; Analyte rlus [34]: 904 rlus; Analyte rlus [35]: 863 rlus; Analyte rlus [36]: 7380 rlus; Analyte rlus [37]: 821 rlus; Analyte rlus [38]: 821 rlus; Analyte rlus [39]: 821 rlus
529	505	549	556	525	593	615	615	615	726	800	2180	607	672	1180	686	606	750	641	581	anti-human NT-proBNP/anti-human proBNP labeled monoclonal antibody 7B5 (HyTest, Turku, Finland)	Analyte rlus [30]: 719 rlus; Analyte rlus [31]: 612 rlus; Analyte rlus [32]: 600 rlus; Analyte rlus [33]: 534 rlus; Analyte rlus [34]: 589 rlus; Analyte rlus [35]: 528 rlus; Analyte rlus [36]: 615 rlus; Analyte rlus [37]: 590 rlus; Analyte rlus [38]: 590 rlus; Analyte rlus [39]: 590 rlus
